Reference: the supplement of paper PMC10724198
± gives the standard deviation of the averaged measurements.

Legend:
[1] = test system: Saccharomyces cerevisiae; assay: protein stability index of tFT-peptide fusion (C-terminal peptide) (PSI (0-1 scale)); higher = more stable (slower turnover); conditions: genetic background: wild type; temperature: 30 C
[2] = test system: Saccharomyces cerevisiae; assay: as above
Experimental: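 MPS profiling in S. cerevisiae of the tFT-X12 degron library: putative degron peptides plus stable controls, 12 aa, fused to the C-terminus of a sfGFP-mCherry timer. Cells are FACS-sorted into 8 mCherry/sfGFP bins and deep-sequenced. PSI runs from 0 (unstable) to 1 (stable). Backgrounds are wild type, das1Δ and doa10Δ at 30 °C, and wild type, das1Δ, cdc34-1 and cdc53-1 at 37 °C; 2-3 technical replicates each.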

[3] = genetic background: cdc34-1, temperature: 37 C
[4] = genetic background: cdc53-1, temperature: 37 C
[5] = genetic background: das1 deletion, temperature: 30 C
[6] = genetic background: das1 deletion, temperature: 37 C
[7] = genetic background: doa10 deletion, temperature: 30 C
[8] = genetic background: wild type, temperature: 30 C
[9] = genetic background: wild type, temperature: 37 C
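Further: PSI is a weighted mean of sequencing reads over stability bins, variants kept only with over 10 reads, mCherry proximal and sfGFP distal, peptide attached via GGGS linker.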

Sequence | protein stability index [1] | protein stability index [2, 3] | protein stability index [2, 4] | protein stability index [2, 5] | protein stability index [2, 6] | protein stability index [2, 7] | protein stability index [2, 8] | protein stability index [2, 9]
VAVYVGVGVSLG | 0.423 ± 0.0046 | 0.454 ± 0.045 | 0.523 ± 0.048 | 0.311 ± 0.03 | 0.546 ± 0.004 | 0.2819 ± 0.0021 | 0.33 ± 0.017 | 0.511 ± 0.039
VAWFFFAYAFFM | 0.321 ± 0.0039 | 0.361 ± 0.058 | 0.451 ± 0.015 | 0.321 ± 0.043 | 0.488 ± 0.015 | 0.251 ± 0.0032 | 0.266 ± 0.026 | 0.407 ± 0.0093
VCALHSAPLLIF | 0.462 ± 0.023 | 0.453 ± 0.029 | 0.484 ± 0.017 | 0.352 ± 0.034 | 0.496 ± 0.0065 | 0.307 ± 0.005 | 0.362 ± 0.012 | 0.467 ± 0.00048
VCLVLVVVWWSG | 0.292 ± 0.024 | 0.219 ± 0.0066 | 0.277 ± 0.028 | 0.222 ± 0.021 | 0.338 ± 0.0041 | 0.1895 ± 0.0012 | 0.201 ± 0.027 | 0.313 ± 0.012
VCRGWCVVRYIL | 0.281 ± 0.064 | 0.593 ± 0.015 | 0.699 ± 0.0099 | 0.574 ± 0.012 | 0.7226 ± 0.0024 | 0.173 ± 0.00096 | 0.18 ± 0.016 | 0.259 ± 0.0046
VCVFNLTLVGTH | 0.366 ± 0.023 | 0.421 ± 0.05 | 0.462 ± 0.018 | 0.347 ± 0.027 | 0.449 ± 0.0089 | 0.358 ± 0.028 | 0.343 ± 0.018 | 0.4341 ± 0.0033
VFFFFSLVNFRV | 0.486 ± 0.041 | 0.546 ± 0.061 | 0.574 ± 0.041 | 0.459 ± 0.042 | 0.606 ± 0.017 | 0.47 ± 0.05 | 0.419 ± 0.021 | 0.549 ± 0.03
VFFLFLVFLTVV | 0.259 ± 0.01 | 0.198 ± 0.059 | 0.164 ± 0.017 | 0.23 ± 0.01 | 0.324 ± 0.018 | 0.222 ± 0.011 | 0.195 ± 0.029 | 0.263 ± 0.0089
VFFRCVCCLSVF | 0.307 ± 0.026 | 0.388 ± 0.029 | 0.408 ± 0.042 | 0.327 ± 0.024 | 0.412 ± 0.014 | 0.2533 ± 0.00085 | 0.264 ± 0.015 | 0.352 ± 0.007
VFFVLIFLLFLF | 0.421 ± 0.011 | 0.438 ± 0.025 | 0.448 ± 0.03 | 0.4 ± 0.03 | 0.46 ± 0.012 | 0.41 ± 0.0085 | 0.353 ± 0.05 | 0.469 ± 0.0008
VFGSVAALRLLM | 0.378 ± 0.095 | 0.666 ± 0.048 | 0.73216 ± 0.00032 | 0.6508 ± 0.0024 | 0.7704 ± 0.003 | 0.193 ± 0.007 | 0.208 ± 0.042 | 0.414 ± 0.036
VFLFSWYIFSVF | 0.184 ± 0.015 | 0.206 ± 0.0065 | 0.341 ± 0.071 | 0.234 ± 0.031 | 0.42493 ± 0.00033 | 0.1066 ± 0.00012 | 0.109 ± 0.03 | 0.169 ± 0.0034
VFLRCRSLSMRV | 0.465 ± 0.03 | 0.475 ± 0.044 | 0.519 ± 0.014 | 0.397 ± 0.028 | 0.5352 ± 0.0026 | 0.409 ± 0.019 | 0.389 ± 0.013 | 0.529 ± 0.012
VFMTLHCITIYK | 0.458 ± 0.0029 | 0.452 ± 0.016 | 0.537 ± 0.068 | 0.379 ± 0.029 | 0.519 ± 0.052 | 0.338 ± 0.0065 | 0.348 ± 0.051 | 0.547 ± 0.0084
VFSCFLFLVVLV | 0.242 ± 0.0034 | 0.129 ± 0.048 | 0.104 ± 0.011 | 0.205 ± 0.035 | 0.283 ± 0.023 | 0.279 ± 0.012 | 0.169 ± 0.019 | 0.2247 ± 0.0019
VFVFLFVFLFLL | 0.177 ± 0.043 | 0.147 ± 0.03 | 0.138 ± 0.041 | 0.214 ± 0.047 | 0.313 ± 0.013 | 0.397 ± 0.098 | 0.2 ± 0.038 | 0.253 ± 0.015
VGCHISAFSDLI | 0.762 ± 0.017 | 0.699 ± 0.022 | 0.744 ± 0.043 | 0.66 ± 0.023 | 0.752 ± 0.011 | 0.66 ± 0.037 | 0.665 ± 0.032 | 0.7489 ± 0.0017
VGFIVCFFFSFG | 0.432 ± 0.02 | 0.334 ± 0.049 | 0.456 ± 0.0062 | 0.325 ± 0.033 | 0.459 ± 0.017 | 0.3 ± 0.031 | 0.313 ± 0.026 | 0.453 ± 0.0084
VGIVWELGCWMG | 0.425 ± 0.019 | 0.365 ± 0.052 | 0.49 ± 0.03 | 0.325 ± 0.023 | 0.543 ± 0.023 | 0.2794 ± 0.00095 | 0.303 ± 0.021 | 0.508 ± 0.0067
VGTGVGEGGGVV | 0.711 ± 0.011 | 0.679 ± 0.029 | 0.72922 ± 0.00013 | 0.645 ± 0.016 | 0.73 ± 0.011 | 0.654 ± 0.018 | 0.649 ± 0.013 | 0.719 ± 0.022
VICVVLSKVFLF | 0.444 ± 0.014 | 0.483 ± 0.054 | 0.5728 ± 0.0027 | 0.495 ± 0.027 | 0.588 ± 0.0071 | 0.416 ± 0.0083 | 0.393 ± 0.02 | 0.483 ± 0.013
VIGFGEVWIRCV | 0.141 ± 0.0034 | 0.358 ± 0.018 | 0.57 ± 0.058 | 0.435 ± 0.025 | 0.619 ± 0.023 | 0.0708 ± 0.013 | 0.0831 ± 0.01 | 0.0868 ± 0.013
VILYCSNVAVCS | 0.294 ± 0.0038 | 0.355 ± 0.048 | 0.42 ± 0.013 | 0.246 ± 0.019 | 0.4263 ± 0.0013 | 0.212 ± 0.004 | 0.248 ± 0.023 | 0.399 ± 0.011
VIVKSRTTLYIS | 0.155 ± 0.0099 | 0.49 ± 0.015 | 0.616 ± 0.0078 | 0.538 ± 0.013 | 0.613 ± 0.0096 | 0.092 ± 0.018 | 0.107 ± 0.018 | 0.193 ± 0.023
VIWVLGALASWG | 0.556 ± 0.098 | 0.5892 ± 0.0018 | 0.6304 ± 0.0041 | 0.479 ± 0.035 | 0.632 ± 0.011 | 0.468 ± 0.02 | 0.479 ± 0.0059 | 0.618 ± 0.015
VKVIILYKIIEV | 0.381 ± 0.038 | 0.353 ± 0.045 | 0.494 ± 0.044 | 0.327 ± 0.029 | 0.5352 ± 0.0045 | 0.29 ± 0.0094 | 0.323 ± 0.027 | 0.549 ± 0.08
VLAYFCYVVFVI | 0.314 ± 0.016 | 0.306 ± 0.01 | 0.343 ± 0.0056 | 0.27 ± 0.0087 | 0.3896 ± 0.0036 | 0.291 ± 0.0044 | 0.263 ± 0.011 | 0.354 ± 0.0069
VLCMSIFIVFGI | 0.371 ± 0.052 | 0.197 ± 0.031 | 0.287 ± 0.023 | 0.195 ± 0.024 | 0.352 ± 0.019 | 0.1774 ± 0.0013 | 0.196 ± 0.011 | 0.303 ± 0.011
VLLLLGGIVCVM | 0.327 ± 0.026 | 0.236 ± 0.01 | 0.227 ± 0.018 | 0.222 ± 0.024 | 0.412 ± 0.0065 | 0.206 ± 0.012 | 0.229 ± 0.018 | 0.395 ± 0.019
VLLLRRPLLVFS | 0.244 ± 0.021 | 0.0781 ± 0.025 | 0.105 ± 0.037 | 0.149 ± 0.028 | 0.229 ± 0.014 | 0.128 ± 0.017 | 0.148 ± 0.024 | 0.187 ± 0.0061
